Reference: the supplement of paper PMC9112550, “Optimization of the antimicrobial peptide Bac7 by deep mutational scanning” (BMC Biology, 2022)

Tested on: Escherichia coli TOP10
Experiment: shrunken log2 fold change of peptide-encoding DNA abundance (4.5 h post-induction vs induction); higher = less antimicrobial activity (less host growth inhibition)
Details: time post-induction: 4.5 h; library: site-saturation at positions 5, 18, 19, 20
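Further: peptides expressed intracellularly from a pBAD plasmid library in pooled LB shake-flask culture, induced with 0.3% L-arabinose, DNA abundance read by NGS, three biological replicates, DESeq2 with apeglm shrinkage.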

Sequence | shrunken log2 fold change
RRIRKRPPRLPRPRPRPHWPPRP | 0.31
RRIRVRPPRLPRPRPRPMCWPRP | 0.00173
RRIRKRPPRLPRPRPRPGVEPRP | 1.09
RRIRGRPPRLPRPRPRPRDAPRP | 1.21
RRIRSRPPRLPRPRPRPYWTPRP | -0.141
RRIRVRPPRLPRPRPRPVLRPRP | 0.187
RRIRARPPRLPRPRPRPKNAPRP | 0.323
RRIRDRPPRLPRPRPRPVLEPRP | 0.627
RRIRFRPPRLPRPRPRPLFAPRP | 0.15
RRIRIRPPRLPRPRPRPPGFPRP | 0.195
RRIRYRPPRLPRPRPRPPQPPRP | 0.436
RRIRQRPPRLPRPRPRPIHEPRP | -0.0182
RRIRYRPPRLPRPRPRPPGVPRP | 0.259
RRIRCRPPRLPRPRPRPRREPRP | 0.746
RRIRPRPPRLPRPRPRPHSHPRP | 0.00335
RRIRVRPPRLPRPRPRPQIFPRP | -0.0538
RRIRWRPPRLPRPRPRPPDEPRP | 0.654
RRIRCRPPRLPRPRPRPPEVPRP | 0.124
RRIRARPPRLPRPRPRPEAMPRP | 0.805
RRIRARPPRLPRPRPRPKPSPRP | 0.524
RRIRNRPPRLPRPRPRPYLIPRP | -0.0464
RRIRPRPPRLPRPRPRPIKMPRP | 0.0328
RRIRWRPPRLPRPRPRPNQTPRP | 0.0653
RRIRYRPPRLPRPRPRPVMVPRP | -0.139
RRIRLRPPRLPRPRPRPTTFPRP | 0.0632

Sequence | shrunken log2 fold change
RRIRQRPPRLPRPRPRPGREPRP | 0.221
RRIRGRPPRLPRPRPRPLYNPRP | -0.247
RRIRLRPPRLPRPRPRPLMKPRP | 0.0215
RRIRLRPPRLPRPRPRPWICPRP | -0.213
RRIRKRPPRLPRPRPRPRYDPRP | -0.0842
RRIRCRPPRLPRPRPRPITTPRP | -0.197
RRIRFRPPRLPRPRPRPHVCPRP | -0.0299
RRIRLRPPRLPRPRPRPESEPRP | -0.000997
RRIRPRPPRLPRPRPRPKKFPRP | 0.0281
RRIRERPPRLPRPRPRPMFPPRP | -0.475
RRIRSRPPRLPRPRPRPKGLPRP | -0.0223
RRIRSRPPRLPRPRPRPEGPPRP | 0.114
RRIRTRPPRLPRPRPRPLFHPRP | -0.193
RRIRWRPPRLPRPRPRPVVGPRP | 0.738
RRIRYRPPRLPRPRPRPGKMPRP | 0.00758
RRIRNRPPRLPRPRPRPCRCPRP | -0.307
RRIRNRPPRLPRPRPRPRCDPRP | -0.203
RRIRGRPPRLPRPRPRPDVQPRP | 1.69
RRIRFRPPRLPRPRPRPSGSPRP | -0.192
RRIRCRPPRLPRPRPRPGHWPRP | 0.0171
RRIRMRPPRLPRPRPRPRPGPRP | 1.38
RRIRIRPPRLPRPRPRPGLSPRP | -0.0218
RRIRTRPPRLPRPRPRPQQQPRP | -0.0474
RRIRNRPPRLPRPRPRPEYIPRP | -0.0947
RRIRNRPPRLPRPRPRPVGHPRP | -0.128

Sequence | shrunken log2 fold change
RRIRERPPRLPRPRPRPADFPRP | 0.0432
RRIRMRPPRLPRPRPRPLTIPRP | 0.19
RRIRQRPPRLPRPRPRPKHPPRP | -0.0928
RRIRFRPPRLPRPRPRPDAKPRP | 0.417
RRIRWRPPRLPRPRPRPHERPRP | 0.156
RRIRNRPPRLPRPRPRPCMMPRP | -0.325
RRIRHRPPRLPRPRPRPYLVPRP | -0.162
RRIRWRPPRLPRPRPRPQYVPRP | 0.00889
RRIRCRPPRLPRPRPRPMLNPRP | -0.38
RRIRQRPPRLPRPRPRPPCTPRP | -0.0301
RRIRRRPPRLPRPRPRPTSRPRP | 0.312
RRIRFRPPRLPRPRPRPVEPPRP | -0.228
RRIRIRPPRLPRPRPRPNTFPRP | -0.926
RRIRVRPPRLPRPRPRPASQPRP | 0.128
RRIRKRPPRLPRPRPRPMKQPRP | -0.108
RRIRQRPPRLPRPRPRPIAHPRP | -0.148
RRIRRRPPRLPRPRPRPDAYPRP | 0.249
RRIRGRPPRLPRPRPRPKMHPRP | 0.769
RRIRWRPPRLPRPRPRPKDMPRP | -0.0331
RRIRGRPPRLPRPRPRPKAWPRP | 0.922
RRIRVRPPRLPRPRPRPKSFPRP | 0.217
RRIRERPPRLPRPRPRPLAKPRP | 0.0848
RRIRNRPPRLPRPRPRPKHMPRP | -0.382
RRIRDRPPRLPRPRPRPEVNPRP | 0.0354
RRIRRRPPRLPRPRPRPLGGPRP | 0.376

Sequence | shrunken log2 fold change
RRIRMRPPRLPRPRPRPWRQPRP | 0.331
RRIRSRPPRLPRPRPRPWTRPRP | 0.0569
RRIRDRPPRLPRPRPRPVSSPRP | -0.0849
RRIRKRPPRLPRPRPRPNDEPRP | 0.179
RRIRMRPPRLPRPRPRPFKMPRP | 0.0516
RRIRWRPPRLPRPRPRPWHQPRP | 0.00792
RRIRERPPRLPRPRPRPGPTPRP | 0.215
RRIRARPPRLPRPRPRPKDSPRP | 0.181
RRIRYRPPRLPRPRPRPMWKPRP | -0.00663
RRIRYRPPRLPRPRPRPTFTPRP | -0.566
RRIRMRPPRLPRPRPRPKRLPRP | 0.0697
RRIRGRPPRLPRPRPRPILWPRP | 0.376
RRIRKRPPRLPRPRPRPEDNPRP | 0.749
RRIRFRPPRLPRPRPRPFVQPRP | -0.694
RRIRNRPPRLPRPRPRPHHKPRP | -0.461
RRIRLRPPRLPRPRPRPYYQPRP | -0.0534
RRIRARPPRLPRPRPRPGTWPRP | 0.161
RRIRVRPPRLPRPRPRPIVRPRP | -0.0635
RRIRYRPPRLPRPRPRPYPKPRP | -0.201
RRIRERPPRLPRPRPRPQHIPRP | -0.15
RRIRSRPPRLPRPRPRPISAPRP | -0.256
RRIRLRPPRLPRPRPRPMSLPRP | -0.0224
RRIRVRPPRLPRPRPRPVYFPRP | -0.334
RRIRYRPPRLPRPRPRPFHKPRP | -0.0655
RRIRGRPPRLPRPRPRPGCGPRP | 1.31

Sequence | shrunken log2 fold change
RRIRWRPPRLPRPRPRPWHYPRP | -0.0627
RRIRGRPPRLPRPRPRPILTPRP | 0.351
RRIRIRPPRLPRPRPRPRAYPRP | -0.315
RRIRNRPPRLPRPRPRPQDSPRP | -0.238
RRIRFRPPRLPRPRPRPTRIPRP | 0.0179
RRIRKRPPRLPRPRPRPSMEPRP | 0.181
RRIRIRPPRLPRPRPRPVALPRP | -0.278
RRIRNRPPRLPRPRPRPIQNPRP | -0.139
RRIRYRPPRLPRPRPRPHQRPRP | -0.0288
RRIRTRPPRLPRPRPRPQWMPRP | -0.291
RRIRERPPRLPRPRPRPNMVPRP | -0.61
RRIRTRPPRLPRPRPRPWQPPRP | -0.0263
RRIRQRPPRLPRPRPRPGHIPRP | -0.0594
RRIRRRPPRLPRPRPRPSWEPRP | 0.1
RRIRTRPPRLPRPRPRPDAKPRP | 0.395
RRIRGRPPRLPRPRPRPCCQPRP | 0.181
RRIRWRPPRLPRPRPRPTKPPRP | 0.184
RRIRKRPPRLPRPRPRPPMLPRP | 0.203
RRIRWRPPRLPRPRPRPPNPPRP | 0.878
RRIRVRPPRLPRPRPRPQDGPRP | -0.00098
RRIRRRPPRLPRPRPRPDNLPRP | 0.000421
RRIRKRPPRLPRPRPRPMNCPRP | -0.014
RRIRHRPPRLPRPRPRPTTAPRP | 0.0968
RRIRIRPPRLPRPRPRPKVFPRP | 0.0502
RRIRCRPPRLPRPRPRPHLMPRP | -0.223
